# Reference: FireProtDB (doi:10.1021/ja068849o)
# Conditions: Escherichia coli (strain K12); pH 9.2; 37 °C; Urea; Fluorescence; Glycine 10 mM; reversible: Yes; whole UniProt chain shown
protein,measurement,value
"Outer membrane protein A wild type, P0A910 (protein) MKKTAIAIAVALAGFATVAQAAPKDNTWYTGAKLGWSQYHDTGFINNNGPTHENQLGAGAFGGYQVNPYVGFEMGYDWLGRMPYKGSVENGAYKAQGVQLTAKLGYPITDDLDIYTRLGGMVWRADTKSNVYGKNHDTGVSPVFAGGVEYAITPEIATRLEYQWTNNIGDAHTIGTRPDNGMLSLGVSYRFGQGEAAPVVAPAPAPAPEVQTKHFTLKSDVLFNFNKATLKPEGQAALDQLYSQLSNLDPKDGSVVVLGYTDRIGSDAYNQGLSERRAQSVVDYLISKGIPADKISARGMGESNPVTGNTCDNVKQRAALIDCLAPDRRVEIEVKGIKDVVTQPQA",denaturant m value,2.2 kcal/mol/M
same,denaturant midpoint (higher = more stable),4.2 M
same,unfolding free energy,9.3 kcal/mol
